Consider three molecules from patent publication US20240042051A1 (Novartis, published 2024).

Experiment [1] concerns the target T1, Human CD48 (recombinant, humanCD48 aa29-220) (human, UniProt P09326 29-220).
T1 construct: SPR analyte in solution; also called analyte human CD48; not shown: C-terminal tag (hFc1P, APP6-Avi or His)
T1 sequence: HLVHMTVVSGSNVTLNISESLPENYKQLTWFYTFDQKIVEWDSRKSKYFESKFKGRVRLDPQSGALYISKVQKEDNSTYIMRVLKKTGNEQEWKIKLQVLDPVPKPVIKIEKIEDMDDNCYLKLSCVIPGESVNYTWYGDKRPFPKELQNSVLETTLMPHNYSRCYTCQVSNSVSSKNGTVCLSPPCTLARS
The experiment in a line: SPR Biacore T200, antibody captured on protein A chip, CD48 as analyte, 25 °C, 1:1 model. As for the experimental part: The anti-CD48 antibodies were diluted at 5 μg/ml and injected on flow cells 2 and 4 for 20 sec at 10 μl/min. Capture level for all antibodies was 370-440 RU. Flow cells 1 and 3 were left blank (no antibody captured) and used as a reference surface. Human and cynomolgus CD48 served as analytes in solution. […] After each cycle of antibody capture and analyte injection, the chip surface was regenerated with 10 mM Glycine-HCl pH 1.5 (Cytiva, ordering #BR100354) for 2×30 s at a flow rate of 50 μl/min. Three runs with duplicate measurements and buffer blank injections were performed. Measurements were executed at 25° C. and data collected at a rate of 10 Hz.
[…] The raw data were double referenced, i.e. the response of the measuring flow cells was corrected for the response of the reference flow cells (no antibody captured), and in a second step the response of a blank injection (buffer) was subtracted. Finally, the sensorgrams were fitted by applying a 1:1 interaction model with a constant fit of RI (0) and a global fit for Rₘₐₓ. Kinetic rate constants (kₐ, kd) and equilibrium dissociation constants (KD) were calculated. Data were processed separately for each run. The generated values were used to calculate average values and standard deviations of the respective equilibrium dissociation constants and the kinetic rate constants.
On the technique in general: SPR reads the build-up and loss of mass on a sensor chip optically.

Experiment [2] deals with T2, hCD48EC:mouse-Ig construct #2248 (ENYKQ modified into GSSKQ) (human, UniProt P09326 27-220, limits assumed).
T2 construct: extracellular domain; not shown: mouse IgG1 part of the fusion
T2 sequence (looked up): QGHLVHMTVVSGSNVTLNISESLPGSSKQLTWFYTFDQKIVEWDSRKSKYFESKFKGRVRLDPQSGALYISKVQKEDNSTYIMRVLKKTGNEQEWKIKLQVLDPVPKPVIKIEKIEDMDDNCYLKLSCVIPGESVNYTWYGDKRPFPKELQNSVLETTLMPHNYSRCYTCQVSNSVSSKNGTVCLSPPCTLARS
The experiment in a line: ELISA, HEK293T culture supernatant (1:10) with the CD48-mouse Ig construct, antibody at 25, 250 and 500 ng/mL, detection goat anti-mouse IgG (H+L) HRP, Mean OD450-570. An excerpt:
Non-mutated CD48-mouse IgG fusion peptide served as positive control and non-transfected cell supernatant as negative control.

B1: NY920 (antibody, human IgG1, kappa, V domains shown)
VH: EVQLLESGGGLVQPGGSLRLSCAASGFTFSSFAMSWVRQAPGKGLEWVSAISGFGGSTYYADSVKGRFTISRDNSKNTLYLQMNSLRAEDTAVYYCARQFWEDQPFYFDYWGQGTLVTVSS
VL: not shown
notes: also called anti-CD48 antibody NY920; candidate antibody NY920
As a reminder, the Kd is the equilibrium constant for the complex coming apart. As usually defined, the koff is the rate constant with which the complex falls apart. For orientation: kon means a measure of how fast the partners come together. For the molecule B1, in experiment [1], the Kd stood at 10 nM, the koff is 0.00074 s⁻¹ and the kon was found to be 72000 M⁻¹ s⁻¹.

B2: humanized CD48A (antibody, V domains shown)
VH: QVQLVQSGSELKKPGASVKVSCKASGYTFTDFGMNWVRQAPGQGLEWMGWINTFTGEPSYGNVFKGRFVFSLDTSVSTAYLQISSLKAEDTAVYYCARRHGNGNVFDSWGQGTLVTVSS
VL: EIVLTQSPDFQSVTPKEKVTITCRASQSIGSNIHWYQQKPDQSPKLLIKYTSESISGVPSRFSGSGSGTDFTLTINSLEAEDAATYYCQQSNSWPLTFGGGTKVEIKR
notes: Murine CD48A is clone MEM-102; also called control antibody CD48A
Take B2: the binding result in experiment [2] is recorded as “no binding (tested: 500 ng/mL)”.

B3: NY938 (antibody, human IgG1, kappa, V domains shown)
VH: QVQLVQSGAEVKKPGASVKVSCKASGYTFTEYTMHWVRQAPGQGLEWMGGINPDTGDTSYNQKFTGRATLTVDKSTSTAYMELSSLRSEDTAVYYCARAQFWTTPRFAYWGQGTLVTVSS
VL: DIQMTQSPSSLSASVGDRVTITCKASQDVGTAVAWYQQKPGKVPKLLIYWASTRHTGVPSRFSGSGSGTDFTLTISSLQPEDVATYYCQQYSTYPITFGQGTKLEIKR
notes: also called anti-CD48 antibody NY938; NY938 IgG
B3: in experiment [1], the Kd stood at 0.5 nM, the off-rate constant (koff) was 0.00013 s⁻¹ and the kon amounted to 250000 M⁻¹ s⁻¹.
